One substance from publication PMC10130221 can be followed below.

Common to all, as to assay: filter binding
Series [1] deals with TrmB D144A (Escherichia coli). As to conditions: none (in vitro transcribed), becomes m7G46 during incubation with SAM, TAKEM4: 50 mM Tris-HCl pH 7.5, 70 mM NH4Cl, 30 mM KCl, 1 mM EDTA, 4 mM MgCl2, filter binding 20 nM tRNA, 10 min (temperature not given in the material) ….
Series [2] deals with TrmB T217A (Escherichia coli). The following applies: none (in vitro transcribed), becomes m7G46 during incubation with SAM, TAKEM4: 50 mM Tris-HCl pH 7.5, 70 mM NH4Cl, 30 mM KCl, 1 mM EDTA, 4 mM MgCl2, filter binding 20 nM tRNA, 10 min (temperature not given in the material) ….
The test system of series [3] is TrmB R26A (Escherichia coli). The following applies: none (in vitro transcribed), becomes m7G46 during incubation with SAM, TAKEM4: 50 mM Tris-HCl pH 7.5, 70 mM NH4Cl, 30 mM KCl, 1 mM EDTA, 4 mM MgCl2, filter binding 20 nM tRNA, 10 min (temperature not given in the material) ….
The test system of series [4] is TrmB WT (Escherichia coli). The following applies: none (in vitro transcribed), becomes m7G46 during incubation with SAM, TAKEM4: 50 mM Tris-HCl pH 7.5, 70 mM NH4Cl, 30 mM KCl, 1 mM EDTA, 4 mM MgCl2, filter binding 20 nM tRNA, 10 min (temperature not given in the material) ….
The subject of series [5] is TrmB R155A (Escherichia coli). As to conditions: max. about 30% bound, none (in vitro transcribed), becomes m7G46 during incubation with SAM, TAKEM4: 50 mM Tris-HCl pH 7.5, 70 mM NH4Cl, 30 mM KCl, 1 mM EDTA, 4 mM MgCl2, filter binding 20 nM tRNA, 10 min (temperature not given in the material) ….

For the substance [3H]tRNAPhe (unmodified transcript), the Kd in series [1] (50 uM SAM) was 0.8 µM; in series [1] (no SAM) it was 2.5 µM; in series [2] (50 uM SAM) it was 2.6 µM; in series [2] (no SAM), 5.4 µM; in series [3] (50 uM SAM), 5.1 µM; in series [3] (no SAM, max. about 20% bound) it was 6.4 µM. The Kd in series [4] (50 uM SAM, tRNA becomes m7G46 product in 10 min) is 2.1 µM; in series [4] (no SAM), 6.6 µM; in series [5] (50 uM SAM) it was 5.8 µM; in series [5] (no SAM), 10 µM.
